Assay results published in the supplement of paper PMC12764529.
± gives the half width of the 95% confidence interval.

Assay: folding stability dG unfold from chymotrypsin proteolysis; higher = more stable
Method: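 Folding stability of de novo designed mini-proteins (<80 aa, no Cys; designed by TrROS, TrMRF, ProteinMPNN and the joint model) was measured by cDNA display proteolysis with trypsin and chymotrypsin. Each protease was used at 11 concentrations in a threefold dilution series plus a no-protease condition. K50 was inferred by Bayesian fitting of sequencing counts, and dG unfold was derived against a sequence-predicted unfolded-state K50 (Tsuboyama et al. method). Sequences shown include variable-length N-terminal GS-type padding (SAGGSAGG...) inside a display construct carrying a PA tag. Rows were kept only if the AF2 dimer inter-PAE was >15, to exclude likely homo-oligomers.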

Sequence | folding stability dG unfold [kcal/mol]
SAGGSAGGSAGDVEVTEVTDANGNLTLTVKAKPATVTPNETVTVTLTVVNDDGETKTFELSAGGSAGGSAGG [r17_293_TrROS_Hall] | -0.186 ± 0.4
SNLKIKWPNGHEIPIQKNNENVRIKFPGNGQEHPIPKEALEDNTPEEILDHLRDHFRQHGMPPMPVEIEKSA [r9_1211_TrROS] | 0.602 ± 0.083
SAGGSAGGSAGGMTRTITVKSPGDAEAVVEELKPLGWEVKEIKKDTANPNVYTVTVEKPSAGGSAGGSAGGS [r10_104_JUSTAS] | 0.752 ± 0.15
SAGGSAGGSAGGGMPYPIKTEVEIKKNGPNISTTETVYRPDGTKIETKKYKIPKKELKKKSAGGSAGGSAGG [r7_602_JUSTAS] | 0.154 ± 0.28
SAGGSAGGSAGGWTLEELKNAPPGEPVTITIPMYSPNGDKKQPMRIRITPDDGEIEIEMSAGGSAGGSAGGS [r10_394_TrROS] | 0.908 ± 0.13
SAGGSAGGSRWRVSFEGPNGGTQEHDIPVPPGEPVDLDEILDEFKEAHPGGPPRPIKIERPDPSAGGSAGGS [r12_262_TrROS] | 0.232 ± 0.28
SAGGSAGGSAGPRVKFRFPGQEHTIPPGRRVYFGNGKKFDPGEPLDDIPPDNITPVEIEPSAGGSAGGSAGG [r17_511_TrROS] | -0.297 ± 0.18
SAGGSAGGSMPEKKFKAEVVEEIEDPKTGKKFYFLKDTKQIFVENKDGSRTAITIDEDKLEIVSAGGSAGGS [r12_420_TrROS_Hall] | 0.433 ± 0.098
SAGGSAGGSAGGSEEKPLVIPIPAHPDIPAEVVRKAVEPLTGVPIEAVLGDEDTLLVVGSAGGSAGGSAGGS [r4_469_TrMRF] | 0.661 ± 0.022
SAGGSAGGSPWQVTHETVTLPEYDPSSDKPIREVTVTVTTETDPTTGATTVSLNLPSDFLRELRSAGGSAGG [r6_206_JUSTAS] | 0.291 ± 0.14
SAGGSAGGSAGAEPLVREFEGRRIVLYREEDPGTARIEVFVGDKPYTVPLEYVPEELLLDSAGGSAGGSAGG [r11_152_TrMRF] | 0.78 ± 0.085
SAGGSAGGSPVRPRTGTVYDPETGARVDVLEYEFPLPDGTPVTVTEVVVTDGDTRTTATLVDPSAGGSAGGS [r12_619_TrMRF] | 0.29 ± 0.014
SAGGSAGGSAGGGSMTKIGNGYLRYTLPGDTVVIYDPSTGTTQTLPVSNPVPVELPPNIPSAGGSAGGSAGG [r7_299_JUSTAS] | 0.671 ± 0.031
SAGGGENAPKPIVEPKLVSTFLIDVEPDTYTPEEIAELFKEATGYEIEEVEVEELPDDNTVLVTVVAGSAGG [r13_457_TrMRF] | 0.472 ± 0.24
SAGGSAGGSAGGMLVTETKPLPTPRTVATVVLLSTEEAPLPSGVLVRRETTEVKLVELISAGGSAGGSAGGS [r10_718_JUSTAS] | -0.503 ± 0.61
SAGGSAGGSAPKFDLRPEVFPLEDDSFLFVSRLLDPDKRLLTLVKVPPNGGLELGDVLLLDSAGGSAGGSAG [r3_165_TrMRF] | -0.176 ± 0.3
SAGGEIKIVVSAEELLRKEGKLSEEQRKKLEEALEEAKKLAEEGKEVKVEVEVVPPKPELKPEDKEKKSAGG [r13_731_TrROS_Hall] | 0.214 ± 0.086
SAGMTITIEDLDNGEKVTIEKNPEDPNMVQIEYPNGPEQTFPADEIAEELGLPPSLLQNGIRIKKIKISSAG [r5_156_TrROS] | -0.603 ± 0.23
SAGGSAAPPFKVEIETEALPGPVVTRTIKVEPGSTVTIYDPGRDEALTFPVAPGTELVFTFDGTDASAGGSA [r15_224_TrMRF] | 0.849 ± 0.044
SAGGSAGGSAGGMSVSPEGYSVSVTGSGPRGVPVPASNAAEQRAALAAQPDVSSVTVTASSAGGSAGGSAGG [r11_587_JUSTAS] | 0.36 ± 0.05
SAGGNRIPIPVKEIANNLNEEGWEIDEVEIYNPDDGEPKGTIPPGDPIEIPPNAPNMTIKPKIKPRKSAGGS [r8_243_TrROS] | 0.0841 ± 0.064
SAGGSAMTTRATATPQPDGTVTVTVEAPGFSRTFTAPPGDLAASLAAVERELPPGEPRVVTSAAAGSAGGSA [r15_925_JUSTAS] | 0.346 ± 0.059
SAGGPNMRTVTIEIPPENLKKDPDGEPYSAQDIAKHIAKHLPPDNVEIEIDKIDPDNGWFKVTIIVPSAGGS [r16_284_TrROS] | -0.0083 ± 0.2
SAGSMTSFPLTLPGGEKISSISVTASPGTEYTTNATLSKDKSKTVTINFDIKPGGEKVVKNISVTTPEESAG [r14_705_JUSTAS] | 0.391 ± 0.2

Sequence | folding stability dG unfold [kcal/mol]
SAGGEELVIEFDSLEDALSAIYPRPDLDKVTLVVPGEGVPVVIPVTVTPPDLGVLGRSAEDRPVPLLGSAGG [r13_183_TrMRF] | -0.825 ± 0.2
SAGGSAGGSGEPRTVLVEVLYDDKPVLIPVTADSEEALPEVARAAIEPLAEKYPHVEIPLPTESAGGSAGGS [r12_230_TrMRF] | 0.164 ± 0.11
SAGGMKVTPLGTEPRPDGTTTTTYLSTLPNGTPVTTTTTTSTIPPPPVPPFSPEEVAAAAARRAAAASAGGS [r16_8_JUSTAS] | 0.249 ± 0.21
SVPVTDETLYPDPSNALPISLVSQLGPDGSSVTTSITLPGRSMTQSVDPSTGRVTGNYPGTGLSSTVTSVPS [r1_125_JUSTAS] | 0.348 ± 0.051
SAGGMPLSTESFVQESSGDGTPFTTTKTTYRDVNGNPLVTPVSTVDPVAGTTTTTVTVDGTPVTTTTPSAGG [r13_948_JUSTAS] | -0.386 ± 0.2
SAGGSAGGSAGGKTYYVTGKLYLKDKPRVIEVKLPYPSELEEEAPERVKKLAEELAKEESAGGSAGGSAGGS [r10_313_TrMRF] | -0.394 ± 0.38
SAGGSAMTKKTVVTIPLPPGAEDLSPEEVERRVRDELAAEPARPDVTVEVERLPPEPVVRVTITEASAGGSA [r15_1029_JUSTAS] | 0.0943 ± 0.046
SAGGSAGGSAGGSFTLTTPGRTETVPAGSEVYFGNGIKLHPDLPLADIPPELLTPIGTRPSAGGSAGGSAGG [r17_511_TrMRF] | 0.48 ± 0.27
SAGGGMPLEELKDIPENLPPGARVRLRFPETGEEGVYVLREDGGYTVEVPGGVVEAPEDTEVTEIVPSAGGS [r8_162_TrMRF] | 0.414 ± 0.13
SAGGSAKIEIEWNPENGMVRVKAEYPNDGKKKEHTFNPGDSPKQLADDINQEFKKPVEIDEIEWYPSAGGSA [r15_544_TrROS] | 0.683 ± 0.04
SAGGSAGGSAGGAADAKVRLVLRTRTFDAVPGEERELPGDSWVYEVGDKAVALELLADPVSAGGSAGGSAGG [r7_506_TrMRF] | 0.895 ± 0.058
SAGGSASMKTTTVTLPLDPAQLAEAIAALREAVAPDEAAEVTFVHPHAPTSLTVTISRSDVTLNAASAGGSA [r15_257_JUSTAS] | 0.706 ± 0.074
SAGVRKIPIESADDLRDEIDKSPGPVIIRNKGNKKYHRIDPDDLNNFAKNGAPIEIMPPDEMPPEMRKQSAG [r5_677_TrROS] | -0.0447 ± 0.14
SAGGSAGGSAGGMIDIPISPEIAENVPPGATVEVEILRDDGRIERLKVKVEDFEPVLPGGSAGGSAGGSAGG [r7_732_TrMRF] | 0.308 ± 0.044
SAGGSAGGSAGGSHPVKITEITEFNPGDNRMRIDIKHPNGGKKEIVVPGMPVEEILNAISAGGSAGGSAGGS [r4_357_TrROS] | 0.0992 ± 0.031
SAGGSAGGSAGKKKIHVHQYPDGNYHIRVPNGKSYHFPPEDADELVEELGIDEVEIHPMDSAGGSAGGSAGG [r11_312_TrROS] | 0.0552 ± 0.089
SAGGDYDYEKDPNKYRVKERDKNGKILGEKEVEVKPPPIVIDGLPEEDLQEFQDKFPNIPITINPGAISAGG [r13_235_TrROS] | -0.271 ± 0.5
SAGGKITIEKKEDGTYTITINGKKFTFKFKPGAKVEIKIEKKKDGTYTITITVTNKDGSKKTFKIKLSAGGS [r16_231_TrROS_Hall] | 4.85 ± 0.26
SAGGSAGGSAGGPWKIKEIETVPEGGKERMTIKIEDDNGKPKKPVHMPPDDLDNLPPDLISAGGSAGGSAGG [r7_263_TrROS] | -0.605 ± 0.24
SAGGSAEKPPIKIEIDTETDPGNGMYEVSIPIRQKNGKPKGTIDIPFNTPQQAEDWLEDLGFDKIESAGGSA [r15_127_TrROS] | -0.865 ± 0.61
SSSMTIAKTEVETYPDGVIRTKETFPGSDTYREFDIPVDPSTGKMPVKSTLYDPKTGKSIETTSEIELLESA [r9_825_JUSTAS] | -0.537 ± 0.33
SAGGEDFTIRTRSPNGEEQKFPFKVDNVEIEPENNHYSIHIKDGKKLTIPPGGIDDIEPDDIKDWIKDSAGG [r13_925_TrROS] | -0.0875 ± 0.29
SAGGSAEPTGPPDVEVKRSTSVEGGLTLTPVTYTSPDNTETLVITYTTDPAGNLSSTTATVPPDLVSAGGSA [r15_986_JUSTAS] | 0.276 ± 0.36
